Measured values: publication PMC8552724

Tested on: T1, AbrB (Bacillus thuringiensis (HD73?)), ORF:5acdf31f
T1 sequence: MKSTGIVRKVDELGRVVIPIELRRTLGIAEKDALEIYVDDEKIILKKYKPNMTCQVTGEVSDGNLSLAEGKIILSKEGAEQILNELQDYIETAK
Assay: EMSA

Sequence: CATCCGTTAAAGGAAGCATGAATTAGTAATGAATTTGCAATTTCGATAAAAGTTTGTAATATTTCATTTTATGGACATACTTCATCTAGATCACTTTGTAATAGAATATTTCCTTTTATATACAATTAAACCACATTTATCCTTCGTGAAATGTTTATATATTAAATAATATAAAAAAATATAGGGTGTTATAATTAATTCGAAAACGTTTACAAAAAGAATGATGGAGGGATAATT (double strand) [Psip1Ab1-S (-201 to +36)]
- binding: binds
